This is an account of results in PMC5065529, “Wnt Signalosome Assembly by DEP Domain Swapping of Dishevelled” (Molecular Cell, 2016).

Sequences and labels used below:
B1: SNAP-FZD5 (Frizzled 5), wild type [human] / DEP_(414–507)-GFP, minimal DEP domain of DVL2 [human] (parent)
chain 1: GRGLSVHTDMASVTKAMAAPESGLEVRDRMWLKITIPNAFLGSDVVDWLYHHVEGFPERREARKYASGLLKAGLIRHTVNKITFSEQCYYVFGD
chain 2: ASKAPVCQEITVPMCRGIGYNLTHMPNQFNHDTQDEAGLEVHQFWPLVEIQCSPDLRFFLCSMYTPICLPDYHKPLPPCRSVCERAKAGCSPLMRQYGFAWPERMSCDRLPVLGRDAEVLCMDYNRSEATTAPPRPFPAKPTLPGPPGAPASGGECPAGGPFVCKCREPFVPILKESHPLYNKVRTGQVPNCAVPCYQPSFSADERTFATFWIGLWSVLCFISTSTTVATFLIDMERFRYPERPIIFLSACYLCVSLGFLVRLVVGHASVACSREHNHIHYETTGPALCTIVFLLVYFFGMASSIWWVILSLTWFLAAGMKWGNEAIAGYAQYFHLAAWLIPSVKSITALALSSVDGDPVAGICYVGNQNLNSLRGFVLGPLVLYLLVGTLFLLAGFVSLFRIRSVIKQGGTKTDKLEKLMIRIGIFTLLYTVPASIVVACYLYEQHYRESWEAALTCACPGHDTGQPRAKPEYWVLMLKYFMCLVVGITSGVWIWSGKTVESWRRFTSRCCCRPRRGHKSGGAMAAGDYPEASAALTGRTGPPGPAATYHKQVSLSHV

In the test the parent is B1. Briefly: FZD5-dependent PM recruitment of DEP-GFP (cell scoring). To be noted: with DEP_(414–507)-GFP, 100 cells scored in each case.

Consider chain 2 ASKAPVCQEITVPMCRGIGYNLTHMPNQFNHDTQDEAGLEVHQFWPLVEIQCSPDLRFFLCSMYTPICLPDYHKPLPPCRSVCERAKAGCSPLMRQYGFAWPERMSCDRLPVLGRDAEVLCMDYNRSEATTAPPRPFPAKPTLPGPPGAPASGGECPAGGPFVCKCREPFVPILKESHPLYNKVRTGQVPNCAVPCYQPSFSADERTFATFWIGLWSVLCFISTSTTVATFLIDMERFRYPERPIIFLSACYLCVSLGFLVRLVVGHASVACSREHNHIHYETTGPALCTIVFLLVYFFGMASSIWWVILSLTWFLAAGMKWGNEAIAGYAQYFHLAAWLIPSVKSITALALSSVDGDPVAGICYVGNQNLNSLRGFVLGPLVLYLLVGTLFLLAGFVSLFRIRSVIKQGGTKTDKLEKLMIRIGIFTLLYTVPASIVVACYLYEQHYRESWEAALTCACPGHDTGQPRAKPEYWVLMLKYFMCLVVGITSGVWIWSGKTVESWRAFTSRCCCRPRRGHKSGGAMAAGDYPEASAALTGRTGPPGPAATYHKQVSLSHV [chain 2 R506A], for which the screen value was 49 % of cells (parent: 52, read off a plot) and 96 % of cells (parent: 88, read off a plot).

In the case of chain 2 ASKAPVCQEITVPMCRGIGYNLTHMPNQFNHDTQDEAGLEVHQFWPLVEIQCSPDLRFFLCSMYTPICLPDYHKPLPPCRSVCERAKAGCSPLMRQYGFAWPERMSCDRLPVLGRDAEVLCMDYNRSEATTAPPRPFPAKPTLPGPPGAPASGGECPAGGPFVCKCREPFVPILKESHPLYNKVRTGQVPNCAVPCYQPSFSADERTFATFWIGLWSVLCFISTSTTVATFLIDMERFRYPERPIIFLSACYLCVSLGFLVRLVVGHASVACSREHNHIHYETTGPALCTIVFLLVYFFGMASSIWWVILSLTWFLAAGMKWGNEAIAGYAQYFHLAAWLIPSVKSITALALSSVDGDPVAGICYVGNQNLNSLRGFVLGPLVLYLLVGTLFLLAGFVSLFRIRSVIKQGGTKTDKLEKLMIRIGIFTLLYTVPASIVVACYLYEQHYRESWEAALTCACPGHDTGQPRAKPEYWVLMLKYFMCLVVGITSGVWIWAGKTVESWRRFTSRCCCRPRRGHKSGGAMAAGDYPEASAALTGRTGPPGPAATYHKQVSLSHV [chain 2 S497A], the screen value was 60 % of cells (parent: 52, read off a plot) and 90 % of cells (parent: 88, read off a plot).

Take chain 2 ASKAPVCQEITVPMCRGIGYNLTHMPNQFNHDTQDEAGLEVHQFWPLVEIQCSPDLRFFLCSMYTPICLPDYHKPLPPCRSVCERAKAGCSPLMRQYGFAWPERMSCDRLPVLGRDAEVLCMDYNRSEATTAPPRPFPAKPTLPGPPGAPASGGECPAGGPFVCKCREPFVPILKESHPLYNKVRTGQVPNCAVPCYQPSFSADERTFATFWIGLWSVLCFISTSTTVATFLIDMERFRYPERPIIFLSACYLCVSLGFLVRLVVGHASVACSREHNHIHYETTGPALCTIVFLLVYFFGMASSIWWVILSLTWFLAAGMKWTNEAIAGYAQYFHLAAWLIPSVKSITALALSSVDGDPVAGICYVGNQNLNSLRGFVLGPLVLYLLVGTLFLLAGFVSLFRIRSVIKQGGTKTDKLEKLMIRIGIFTLLYTVPASIVVACYLYEQHYRESWEAALTCACPGHDTGQPRAKPEYWVLMLKYFMCLVVGITSGVWIWSGKTVESWRRFTSRCCCRPRRGHKSGGAMAAGDYPEASAALTGRTGPPGPAATYHKQVSLSHV [chain 2 G323T]: the screen value (parent: 52, read off a plot) was 56 % of cells and the screen value (parent: 88, read off a plot) is 92 % of cells.

Consider chain 2 ASKAPVCQEITVPMCRGIGYNLTHMPNQFNHDTQDEAGLEVHQFWPLVEIQCSPDLRFFLCSMYTPICLPDYHKPLPPCRSVCERAKAGCSPLMRQYGFAWPERMSCDRLPVLGRDAEVLCMDYNRSEATTAPPRPFPAKPTLPGPPGAPASGGECPAGGPFVCKCREPFVPILKESHPLYNKVRTGQVPNCAVPCYQPSFSADERTFATFWIGLWSVLCFISTSTTVATFLIDMERFAYPERPIIFLSACYLCVSLGFLVRLVVGHASVACSREHNHIHYETTGPALCTIVFLLVYFFGMASSIWWVILSLTWFLAAGMKWGNEAIAGYAQYFHLAAWLIPSVKSITALALSSVDGDPVAGICYVGNQNLNSLRGFVLGPLVLYLLVGTLFLLAGFVSLFRIRSVIKQGGTKTDKLEKLMIRIGIFTLLYTVPASIVVACYLYEQHYRESWEAALTCACPGHDTGQPRAKPEYWVLMLKYFMCLVVGITSGVWIWSGKTVESWRRFTSRCCCRPRRGHKSGGAMAAGDYPEASAALTGRTGPPGPAATYHKQVSLSHV [chain 2 R239A], for which the screen value was 11 % of cells (parent: 52, read off a plot) and 56 % of cells (parent: 88, read off a plot).

As for chain 2 ASKAPVCQEITVPMCRGIGYNLTHMPNQFNHDTQDEAGLEVHQFWPLVEIQCSPDLRFFLCSMYTPICLPDYHKPLPPCRSVCERAKAGCSPLMRQYGFAWPERMSCDRLPVLGRDAEVLCMDYNRSEATTAPPRPFPAKPTLPGPPGAPASGGECPAGGPFVCKCREPFVPILKESHPLYNKVRTGQVPNCAVPCYQPSFSADERTFATFWIGLWSVLCFISTSTTVATFLIDMERFRAPERPIIFLSACYLCVSLGFLVRLVVGHASVACSREHNHIHYETTGPALCTIVFLLVYFFGMASSIWWVILSLTWFLAAGMKWGNEAIAGYAQYFHLAAWLIPSVKSITALALSSVDGDPVAGICYVGNQNLNSLRGFVLGPLVLYLLVGTLFLLAGFVSLFRIRSVIKQGGTKTDKLEKLMIRIGIFTLLYTVPASIVVACYLYEQHYRESWEAALTCACPGHDTGQPRAKPEYWVLMLKYFMCLVVGITSGVWIWSGKTVESWRRFTSRCCCRPRRGHKSGGAMAAGDYPEASAALTGRTGPPGPAATYHKQVSLSHV [chain 2 Y240A], the screen value was 8 % of cells (parent: 52, read off a plot) and 32 % of cells (parent: 88, read off a plot).

On to chain 2 ASKAPVCQEITVPMCRGIGYNLTHMPNQFNHDTQDEAGLEVHQFWPLVEIQCSPDLRFFLCSMYTPICLPDYHKPLPPCRSVCERAKAGCSPLMRQYGFAWPERMSCDRLPVLGRDAEVLCMDYNRSEATTAPPRPFPAKPTLPGPPGAPASGGECPAGGPFVCKCREPFVPILKESHPLYNKVRTGQVPNCAVPCYQPSFSADERTFATFWIGLWSVLCFISTSTTVATFLIDMERFRYPERPIIFLSACYLCVSLGFLVRLVVGHASVACSREHNHIHYETTGPALCTIVFLLVYFFGMASSIWWVILSLTWFLAAGMKWGNEAIAGYAQYFHLAAWLIPSVKSITALALSSVDGDPVAGICYVGNQNLNSLRGFVLGPLVLYLLVGTLFLLAGFVSLFRIRSVIKQGGTKTDKAEKLMIRIGIFTLLYTVPASIVVACYLYEQHYRESWEAALTCACPGHDTGQPRAKPEYWVLMLKYFMCLVVGITSGVWIWSGKTVESWRRFTSRCCCRPRRGHKSGGAMAAGDYPEASAALTGRTGPPGPAATYHKQVSLSHV [chain 2 L417A], for which the screen value runs as follows: (parent: 52, read off a plot) 5 % of cells; (parent: 88, read off a plot) 37 % of cells.
